{
  "source": "patent US20120077751",
  "key": {"[1]": {"tested_on": "GST back bone (GST) [GST: P08515]"}, "[2]": {"tested_on": "GST-GluR23Y (GST-YKEGYNVYG) [GST: P08515]"}, "[3]": {"biological_target": "GST fusion protein of the GluR2 carboxyl tail (GST-GluR2CT) (UniProt P19491)", "sequence (P19491 834-883)": "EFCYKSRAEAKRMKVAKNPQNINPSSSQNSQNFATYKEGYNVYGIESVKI"}, "[4]": {"tested_on": "T1, GST-GluR23A (GST-AKEGANVAG)", "T1 sequence": "AKEGANVAG"}, "[5]": {"biological_target": "GST fusion protein of the GluR1 carboxyl tail (GST-GluR1CT) (UniProt P19490)", "sequence (P19490 827-907)": "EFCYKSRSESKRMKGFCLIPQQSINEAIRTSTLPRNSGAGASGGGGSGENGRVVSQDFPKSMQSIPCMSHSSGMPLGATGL"}},
  "data": [
    {"substance": "active recombinant pp60 c-Src", "values": [
      {"measurement": "in vitro kinase assay, anti-phosphotyrosine immunoblot", "setting": "[1]", "result": "GST-GluR2CT, but not GST-GluR1CT or GST alone, is specifically phosphorylated by Src kinase"},
      {"measurement": "in vitro kinase assay, anti-phosphotyrosine immunoblot", "setting": "[2]", "result": "the recombinant Src kinase phosphorylated a GST fusion protein containing the nine amino-acid stretch including all three GluR2-unique tyrosine residues"},
      {"measurement": "in vitro kinase assay, anti-phosphotyrosine immunoblot", "setting": "[3]", "result": "GST-GluR2CT, but not GST-GluR1CT or GST alone, is specifically phosphorylated by Src kinase"},
      {"measurement": "in vitro kinase assay, anti-phosphotyrosine immunoblot", "setting": "[4]", "result": "Src-mediated phosphorylation was abolished when these tyrosine residues were mutated into alanines"},
      {"measurement": "in vitro kinase assay, anti-phosphotyrosine immunoblot", "setting": "[5]", "result": "GST-GluR2CT, but not GST-GluR1CT or GST alone, is specifically phosphorylated by Src kinase"}
    ]}
  ]
}
